Experimental data taken from patent US20120322725A1 (INDIANA UNIVERSITY RESEARCH AND TECHNOLOGY, published 2012).
Read-outs that look alike come from different tables or passages of the source. Square brackets hold non-standard residues; d marks the D form. Ends that are not written are not given here. Abu(4-SO3H) = N[C@@H](CCS(=O)(=O)O)C(=O)O

Tests used:
GLP-1 receptor = GLP-1 receptor (UniProt P43220 24-463, limits assumed); assay: cell-based or functional assay
glucagon receptor [1] = target: T1, glucagon receptor (UniProt P47871 26-477, limits assumed); assay: column IC50(nM) beside the cAMP columns of Table H; taken as receptor binding
T1 construct: whole, on cells; also called GR; Glucagon

glucagon receptor [2] = target: T1, glucagon receptor; assay: cell-based or functional assay
glucagon receptor [3] = target: T1, glucagon receptor; assay: receptor binding, method not described
glucagon receptor [4] = target: T1, glucagon receptor; assay: cell-based or functional assay; remark: listed apart in the source

T1 sequence (P47871 26-477 limits assumed): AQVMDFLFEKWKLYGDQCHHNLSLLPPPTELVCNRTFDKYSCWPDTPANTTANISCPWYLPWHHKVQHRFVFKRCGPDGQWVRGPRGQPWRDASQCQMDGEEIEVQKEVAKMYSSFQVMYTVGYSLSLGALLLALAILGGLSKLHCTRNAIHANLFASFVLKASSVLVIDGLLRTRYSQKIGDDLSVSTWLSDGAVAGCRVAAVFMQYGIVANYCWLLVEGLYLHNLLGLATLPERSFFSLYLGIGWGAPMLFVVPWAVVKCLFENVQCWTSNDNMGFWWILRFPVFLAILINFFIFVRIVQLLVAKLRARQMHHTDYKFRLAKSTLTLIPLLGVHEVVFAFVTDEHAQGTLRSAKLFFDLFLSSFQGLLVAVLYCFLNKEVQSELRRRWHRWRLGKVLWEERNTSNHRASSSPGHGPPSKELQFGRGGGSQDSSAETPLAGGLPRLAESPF

Binder	GLP-1 EC50 (GLP-1 receptor)	IC50 (glucagon receptor [1])	cAMP IC50 (glucagon receptor [2])	cAMP pA2 (glucagon receptor [2])	IC50 (glucagon receptor [3])	cAMP IC50 (glucagon receptor [4])	cAMP pA2 (glucagon receptor [4])
HSQGTFTSDYARYLDARRAREFIKWLVRGRG [ANK2 (Bayer peptide)]	0.28 nM						
GTFTSXYSKYLDSRRAQDFVQWLMNT (HELM PEPTIDE1{G.T.F.T.S.[O=C([C@H](CCS(=O)(=O)O)N[*:1])[*:2]].Y.S.K.Y.L.D.S.R.R.A.Q.D.F.V.Q.W.L.M.N.T.[am]}$$$$V2.0; N-terminus assumed; SMILES CSCC[C@H](NC(=O)[C@H](CC(C)C)NC(=O)[C@H](Cc1c[nH]c2ccccc12)NC(=O)[C@H](CCC(N)=O)NC(=O)[C@@H](NC(=O)[C@H](Cc1ccccc1)NC(=O)[C@H](CC(=O)O)NC(=O)[C@H](CCC(N)=O)NC(=O)[C@H](C)NC(=O)[C@H](CCCNC(=N)N)NC(=O)[C@H](CCCNC(=N)N)NC(=O)[C@H](CO)NC(=O)[C@H](CC(=O)O)NC(=O)[C@H](CC(C)C)NC(=O)[C@H](Cc1ccc(O)cc1)NC(=O)[C@H](CCCCN)NC(=O)[C@H](CO)NC(=O)[C@H](Cc1ccc(O)cc1)NC(=O)[C@H](CCS(=O)(=O)O)NC(=O)[C@H](CO)NC(=O)[C@@H](NC(=O)[C@H](Cc1ccccc1)NC(=O)[C@@H](NC(=O)CN)[C@@H](C)O)[C@@H](C)O)C(C)C)C(=O)N[C@@H](CC(N)=O)C(=O)N[C@H](C(N)=O)[C@@H](C)O) [[hCys^9(SO3H)]Glucagon(aa4-29)-NH2]		41.5 nM	68.4 nM	7.22			
TFTSXYSKYLDSRRAQDFVQWLMNT (HELM PEPTIDE1{T.F.T.S.[O=C([C@H](CCS(=O)(=O)O)N[*:1])[*:2]].Y.S.K.Y.L.D.S.R.R.A.Q.D.F.V.Q.W.L.M.N.T.[am]}$$$$V2.0; N-terminus assumed; SMILES CSCC[C@H](NC(=O)[C@H](CC(C)C)NC(=O)[C@H](Cc1c[nH]c2ccccc12)NC(=O)[C@H](CCC(N)=O)NC(=O)[C@@H](NC(=O)[C@H](Cc1ccccc1)NC(=O)[C@H](CC(=O)O)NC(=O)[C@H](CCC(N)=O)NC(=O)[C@H](C)NC(=O)[C@H](CCCNC(=N)N)NC(=O)[C@H](CCCNC(=N)N)NC(=O)[C@H](CO)NC(=O)[C@H](CC(=O)O)NC(=O)[C@H](CC(C)C)NC(=O)[C@H](Cc1ccc(O)cc1)NC(=O)[C@H](CCCCN)NC(=O)[C@H](CO)NC(=O)[C@H](Cc1ccc(O)cc1)NC(=O)[C@H](CCS(=O)(=O)O)NC(=O)[C@H](CO)NC(=O)[C@@H](NC(=O)[C@H](Cc1ccccc1)NC(=O)[C@@H](N)[C@@H](C)O)[C@@H](C)O)C(C)C)C(=O)N[C@@H](CC(N)=O)C(=O)N[C@H](C(N)=O)[C@@H](C)O) [[hCys^9(SO3H)]Glucagon(aa5-29)-NH2]		33.9 nM	98.3 nM	6.77			
FTS[Abu(4-SO3H)]YSKYLDSRRAQDFVQWLMNT-NH2 (also called [hCys(SO3)9]Glucagon(aa6-29)-NH2) [[hCys^9(SO3H)]Glucagon(aa6-29)-NH2]		59.1 nM	133 nM	7.16	59.1 nM	133 nM	7.16
